Assay results taken from paper PMC5855135 (Chemical Science, 2017).
Where a chain is given by its changes, count along the chain named. In names and notes the source's numbering stands.

What was measured:
[1] = molecular target: T1, CcpA (SaCcpA) (Staphylococcus aureus Newman) (UniProt P99175); test: EMSA; settings: BLI: 25 mM Tris-HNO3, 80 mM NaNO3, 35 mM KNO3, 10 mM Mg(NO3)2, 0.1% Triton X-100, 10% glycerol, 0.1% BSA, 0.01% Tween 20, pH 7.5, 37 C; EMSA: 35 nM DNA in …
T1 sequence: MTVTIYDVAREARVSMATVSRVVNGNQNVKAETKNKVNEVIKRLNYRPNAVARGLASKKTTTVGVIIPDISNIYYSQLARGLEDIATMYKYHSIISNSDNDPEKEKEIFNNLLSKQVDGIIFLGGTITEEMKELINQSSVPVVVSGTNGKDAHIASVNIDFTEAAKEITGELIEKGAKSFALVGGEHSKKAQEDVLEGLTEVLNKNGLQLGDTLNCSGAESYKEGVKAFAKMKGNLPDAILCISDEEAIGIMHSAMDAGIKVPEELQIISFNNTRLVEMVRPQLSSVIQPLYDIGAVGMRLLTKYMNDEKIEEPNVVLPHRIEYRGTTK

[2] = system: CcpA (SaCcpA) (Staphylococcus aureus Newman); test: BLI; settings: no Ag+; 10 mM Mg2+; BLI: 25 mM Tris-HNO3, 80 mM NaNO3, 35 mM KNO3, 10 mM Mg(NO3)2, 0.1% Triton X-100, 10% glycerol, 0.1% BSA, 0.01% Tween 20, pH 7.5, 37 C; EMSA: 35 nM DNA in …
[3] = system: CcpA2CS (Staphylococcus aureus Newman); test: BLI; settings: BLI: 25 mM Tris-HNO3, 80 mM NaNO3, 35 mM KNO3, 10 mM Mg(NO3)2, 0.1% Triton X-100, 10% glycerol, 0.1% BSA, 0.01% Tween 20, pH 7.5, 37 C; EMSA: 35 nM DNA in …
[4] = system: CcpA2CS (Staphylococcus aureus Newman); test: BLI; settings: BLI: 25 mM Tris-HNO3, 80 mM NaNO3, 35 mM KNO3, 10 mM Mg(NO3)2, 0.1% Triton X-100, 10% glycerol, 0.1% BSA, 0.01% Tween 20, pH 7.5, 37 C; EMSA: 35 nM DNA in …; remark: listed apart in the source
[5] = molecular target: the molecule itself; test: SEC; size-exclusion chromatography of purified CcpA pre-incubated with Ag+ (0.6, 1.2, 2.0 molar equivalents; CcpA^2CS with 2.0)
[6] = molecular target: the molecule itself; test: SEC; size-exclusion chromatography of purified CcpA without Ag+

Q: How did the binding [1] turn out when “ACTCGTACCACCAGTCACTATAAAATGTTGTCCTTTCATCAATTAACCTTCCTTTTCAATTATATAGAATGCAATTTATCAACTTTACATAATTGAGACAAGTTGATTATCTTTCCTAATATATATACAATAATAAGAAAATATAACATACAAATCAAAAACTAAAGGGATGTGACGTTAATGAAACTCG (double strand) [proC probe]” was run?
A: no binding

Q: With biotinylated pckA promoter probe as the molecule, how does the Kd [2] read?
A: 16.1 nM

Q: And the Kd [3]?
A: 15.1 nM

Q: What about the Kd [4] of the same molecule?
A: 20.7 nM

B1: Staphylococcus aureus catabolite control protein A (CcpA), wild type (natural protein, UniProt Q5HF38 1-329, looked up)
chain: T1 sequence
notes: catabolite control protein A (CcpA) of Staphylococcus aureus; has two cysteines, Cys216 and Cys242; Dimer by SEC without Ag+; written as the protomer for the rows of self-association; Host, tags and limits are in the ESI; also called SaCcpA; WT CcpA
Q: What does the source list for B1?
A: stoichiometry N [5]: 4; stoichiometry N [6]: 2

B2: Staphylococcus aureus CcpA C242S mutant (natural protein)
chain: T1 sequence with C242S
Q: For B2, which “stoichiometry N” value [5] is on record?
A: 4

B3: Staphylococcus aureus CcpA C216S mutant (natural protein)
chain: T1 sequence with C216S
Q: Which “stoichiometry N” value [5] does the source give for B3 here?
A: 4
